Experimental data from PMC11202169, “A Novel Fluorescence-Based Microplate Assay for High-Throughput Screening of hSULT1As Inhibitors” (Biosensors, 2024).

How the values were obtained:
Format in all cases: biochemical, human
Conditions in all cases: other: HN-241 4-O-sulfation
[1] = substrate: CCN1C(=O)c2cccc3c(O)ccc(c23)C1=O; assay: Enzymatic kinetics of hSULT1A1-catalyzed HN-241 4-O-sulfation
Description: (§1) The enzymatic kinetic parameters of hSULT1As-catalyzed HN-241 4-O-sulfation were measured by incubating increasing concentrations of HN-241 with each of the hSULT1As for a certain period. The fitting equations included Equation (2), the Michaelis–Menten equation, and Equation (3) for enzyme kinetics with substrate inhibition. Related kinetic parameters were fitted by GraphPad Prism 8.0 (San Diego, CA, USA). (2) V=Vmax × [S]/Km+[S] (3) V=Vmax × [S]/Km+[S](1+[S]/Ki)
(§2) [S] refers to the concentration of HN-241, Vmax is the maximum rate of hSULT1As-catalyzed HN-241 4-O-sulfation, Km is the substrate concentration at the half Vmax, and Ki represents the dissociation constant for the binding of the substrate to the inhibitory site.

[2] = substrate: CCN1C(=O)c2cccc3c(O)ccc(c23)C1=O; assay: Enzymatic kinetics of hSULT1A3-catalyzed HN-241 4-O-sulfation
Description: as §1, §2

[3] = substrate: CCN1C(=O)c2cccc3c(O)ccc(c23)C1=O; assay: Enzymatic kinetics of hSULT1A2-catalyzed HN-241 4-O-sulfation
Description: as §1, §2

B1: hSULT1A1 (Homo sapiens) (protein)
chain: MELIQDTSRPPLEYVKGVPLIKYFAEALGPLQSFQARPDDLLISTYPKSGTTWVSQILDMIYQGGDLEKCHRAPIFMRVPFLEFKAPGIPSGMETLKDTPAPRLLKTHLPLALLPQTLLDQKVKVVYVARNAKDVAVSYYHFYHMAKVHPEPGTWDSFLEKFMVGEVSYGSWYQHVQEWWELSRTHPVLYLFYEDMKENPKREIQKILEFVGRSLPEETVDFVVQHTSFKEMKKNPMTNYTTVPQEFMDHSISPFMRKGMAGDWKTTFTVAQNERFDADYAEKMAGCSLSFRSEL
notes: 6-histidine tag (N); TEV site (N); made in house; host or cells: Escherichia coli BL21 (DE3), pET29a(+)
For B1, the Km [1] was 0.91 ± 0.24 µM, the Vmax [1] was 0.0221 ± 0.00443 µmol/min/mg and the Vmax/Km [1] was 24300 µL/min/mg.

B2: hSULT1A3 (Homo sapiens) (protein)
chain: MELIQDTSRPPLEYVKGVPLIKYFAEALGPLQSFQARPDDLLINTYPKSGTTWVSQILDMIYQGGDLEKCNRAPIYVRVPFLEVNDPGEPSGLETLKDTPPPRLIKSHLPLALLPQTLLDQKVKVVYVARNPKDVAVSYYHFHRMEKAHPEPGTWDSFLEKFMAGEVSYGSWYQHVQEWWELSRTHPVLYLFYEDMKENPKREIQKILEFVGRSLPEETMDFMVQHTSFKEMKKNPMTNYTTVPQELMDHSISPFMRKGMAGDWKTTFTVAQNERFDADYAEKMAGCSLSFRSEL
notes: as for B1
Protein B2 has a Km [2] of 12.90 ± 1.16 µM, a Vmax [2] of 0.00881 µmol/min/mg and a Vmax/Km [2] of 683 µL/min/mg.

B3: hSULT1A2 (Homo sapiens) (protein)
chain: MELIQDISRPPLEYVKGVPLIKYFAEALGPLQSFQARPDDLLISTYPKSGTTWVSQILDMIYQGGDLEKCHRAPIFMRVPFLEFKVPGIPSGMETLKNTPAPRLLKTHLPLALLPQTLLDQKVKVVYVARNAKDVAVSYYHFYHMAKVYPHPGTWESFLEKFMAGEVSYGSWYQHVQEWWELSRTHPVLYLFYEDMKENPKREIQKILEFVGRSLPEETVDLMVEHTSFKEMKKNPMTNYTTVRREFMDHSISPFMRKGMAGDWKTTFTVAQNERFDADYAKKMAGCSLSFRSEL
notes: as for B1
B3 gave a Km [3] of 4.47 ± 0.20 µM, a Vmax [3] of 0.00644 µmol/min/mg and a Vmax/Km [3] of 1440 µL/min/mg.
